Measurements reported in US8394929B2, “Nogo receptor-mediated blockade of axonal growth” (Yale University, priority 2000, dated 2013).
Like-named read-outs stand apart in the source and are kept apart here. Each block holds one molecule with its values, some of them ahead of it.

Experiments:
[1] = test system: CNS myelin induced neurite outgrowth inhibition; experiment: Blockade of CNS myelin induced neurite outgrowth inhibition in chick DRG neurons; assay type: cell-based
Method: To determine the antagonistic activity of Peptide 140 against CNS myelin, the above synthetic peptide was added approximately 10 min before application of CNS myelin. 30 min later, cultures were fixed and growth cone collapse was assessed following staining with rhodamine-phalloidin. For neurite outgrowth assays, plastic chamber slide were coated with 100 μg ml^−1 poly-L-lysine, washed, and dried. 3 μl drops of PBS containing CNS myelin were spotted and dried. Slides were then rinsed and coated with 10 μg ml fs24^−1 laminin before addition of dissociated E12 chick DRGs. Peptide 140, or the scrambled version of Peptide 140, was added at the time of cell plating. Cultures were grown for 5-7 h after which neurite outgrowth was assessed.
Although the role of the GPI anchor may be to regulate NgR cellular compartmentalization, another possible role for the GPI linkage is to provide a NgR cleavage site. Cleaving NgR could serve to affect hNogo-A (1055-1120) signaling by rendering a neuron insensitive to hNogo-A (1055-1120) and by releasing soluble NgR that could then act on adjacent cells to modulate hNogo-A (1055-1120) signaling. To determine if soluble mNgR modulates hNogo-A (1055-1120)-dependent inhibition, a soluble mNgR was generated by inserting a truncated cDNA encoding mNgR residues 1-348 in frame with a myc-His carboxy tag into pcDNA3.1. The resulting plasmid expressing mNgREcto was transfected into HEK293T cells, and conditioned media containing mNgREcto protein was collected. To test the effect of mNgREcto on Nogo signaling, E13 dissociated DRGs were plated in the presence of hNogo-A (1055-1120) or myelin. The inhibitors were presented in either soluble or substrate-bound forms. For neurite outgrowth assays on hNogo-A (1055-1120) or myelin substrates, Permanox chamber slides were coated with 100μ, fs24 g ml^−1 poly-L-Lysine, washed, and then 3-μl drops of phosphate-buffered saline (hereinafter “PBS”) containing 0, 10, 50, or 150 ng of GST-hNogo-A (1055-1120) or myelin were spotted and dried. GST-hNogo-A (1055-1120) and myelin were prepared as previously described (GrandPre et al., supra; Fournier et al., J. Cell Biol. 149:411-421, 2000). After three PBS washes, slides were coated with 10 μg ml^−1 laminin. Laminin was then aspirated and dissociated E13 chick DRG neurons were added. After 6-8 hr of outgrowth, cultures were fixed and neurite outgrowth lengths were assessed. For blockade experiments with NgREcto, spots were incubated with HEK293T cell conditioned media or NgREcto-transfected-HEK293T cell conditioned media following for 1 hr following the laminin coating step and before the addition of dissociated neurons. […] Thus, soluble fragments of NgR might serve physiologically or pharmacologically to reduce GST-hNogo-A (1055-1120) inhibition of axonal regeneration.

[2] = test system: chick dorsal root ganglion neurons; experiment: Neurite outgrowth assay in chick DRG neurons; assay type: cell-based
Method: For all experiments involving cell culture, the following methods were employed. The culture of embryonic chick E10 and E12 dorsal root ganglion explants and dissociated neurons utilized methods described for E7 dorsal root ganglion cultures (Takahashi et al., (1998) Nature Neurosci. 1, 487-493; Takahashi et al., (1999) Cell 99, 59-69; Goshima et al., (1995) Nature 376, 509-514; Jin & Strittmatter, (1997) J. Neurosci. […]). NGF-differentiated PC12 cells were cultured as described (Strittmatter et al., (1994) J. Neurosci. 14, 2327-2338). Embryonic spinal cord explants (rat E10 or chick E5) were cultured for 7-14 days in the presence of PDGF-AA to induce differentiation of some cells into mature oligodendrocytes (Vartanian et al., (1999) Proc. Natl. Acad. Sci. USA 96, 731-735). The procedure for growth cone collapse assays is identical to that for analysis of Sema3A-induced growth cone collapse (Takahashi et al., (1998) Nature Neurosci. 1, 487-493; Takahashi et al., (1999) Cell 99, 59-69; Goshima et al., (1995) Nature 376, 509-514; Jin & Strittmatter, (1997) J. Neurosci. 17, 6256-6263). The method for analysis of total neurite outgrowth has also been described (Goshima et al., (1995) Nature 376, 509-514; Jin & Strittmatter, (1997) J. Neurosci. 17, 6256-6263; Strittmatter et al., (1994) J. Neurosci. 14, 2327-2338). In outgrowth assays, proteins and peptides were added one hour after plating to minimize any effect on the total number of adherent cells. To test the effect of substrate-bound GST or GST-Nogo, the protein solutions were dried on poly-L-lysine coated glass, washed and then coated with laminin. For E12 cultures, the neuronal identity of cells was verified by staining with anti-neurofilament antibodies (2H3, Develomental Studies Hybridoma Bank) and neurites were traced by observation of rhodamine-phalloidin staining of F-actin in processes.
For neurite outgrowth assays, plastic chamber slides were coated with 100 μg ml^−1 poly-L-lysine, washed, and dried. 3 μl drops of PBS containing GST-Nogo-66 were spotted and dried. Slides were then rinsed and coated with 10 μg ml fs24^−1 laminin before addition of dissociated E12 chick DRGs. AP-fusion proteins were added at the time of cell plating. Cultures were grown for 5-7 h after which neurite outgrowth was assessed.

mouse NgR = biological target: T1, mouse NgR (Mus musculus, UniProt Q99PI8); experiment: AP-fusion protein binding to COS-7 cells expressing mouse NgR
T1 construct: expressed in transfected cells; host or cells: COS-7
T1 sequence (Q99PI8 27-473): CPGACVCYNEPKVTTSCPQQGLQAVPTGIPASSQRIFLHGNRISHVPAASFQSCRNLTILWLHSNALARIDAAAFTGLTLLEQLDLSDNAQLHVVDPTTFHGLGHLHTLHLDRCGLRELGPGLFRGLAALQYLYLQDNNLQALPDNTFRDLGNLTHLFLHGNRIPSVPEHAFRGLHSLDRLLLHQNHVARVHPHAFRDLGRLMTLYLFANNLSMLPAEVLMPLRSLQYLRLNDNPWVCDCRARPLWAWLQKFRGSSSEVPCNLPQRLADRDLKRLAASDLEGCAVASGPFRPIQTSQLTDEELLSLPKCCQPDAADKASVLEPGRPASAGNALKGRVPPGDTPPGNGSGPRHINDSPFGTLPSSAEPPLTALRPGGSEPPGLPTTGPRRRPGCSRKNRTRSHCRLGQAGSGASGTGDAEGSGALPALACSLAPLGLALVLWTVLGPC

[3] = soluble protein or peptide added to culture

Molecule: Pep2-41: 2-41 fragment of the 66 amino acid region of Nogo, acetylated and amidated at the termini (Ac-RIYKGVIQAIQKSDEGHPFRAYLESEVAISEELVQKYSNS-NH2)
blockade of CNS myelin induced neurite outgrowth inhibition (in words) [1]: can reverse the inhibition of neurite outgrowth
blockade of CNS myelin induced neurite outgrowth inhibition (in words) ([1]; listed as 2-41 fragment): blocks

Molecule: Peptide 140: synthetic peptide of amino acids #1055-1094 of the human NogoA protein, acetylated and amidated at the termini (Ac-RIYKGVIQAIQKSDEGHPFRAYLESEVAISEELVQKYSNS-NH2; UniProt Q9NQC3 1055-1094, looked up, fragment)
neurite/axon outgrowth (in words) [2, 3]: no observable effect on neurite outgrowth
blockade of CNS myelin induced neurite outgrowth inhibition (in words) [1]: partial neutralization
concentration at which maximal activity is obtained ([1]; bound CNS myelin): approximately 250 nM
neurite outgrowth on a 20 ng spot of myelin (as compared with control outgrowth) ([1]; following treatment with Peptide 140, E12 chick DRG): 65%

displacement of AP-Nogo (in words) (mouse NgR): displaces AP-Nogo
B1: GST-Nogo: GST fusion protein of the 66 amino acid lumenal-extracellular fragment of Nogo-A, expressed in E. coli (protein)
chain: RIYKGVIQAIQKSDEGHPFRAYLESEVAISEELVQKYSNSALGHVNCTIKELRRLFLVDDLVDSLK
modifications: also: GST fusion protein
notes: GST fusion protein of the 66 amino acid lumenal-extracellular fragment of Nogo-A, expressed in E. coli
neurite/axon outgrowth (in words) [2, 3]: blocked
neurite/axon outgrowth (in words) ([2]; soluble protein or peptide added to culture, listed as Nogo-66): nearly abolishes axonal extension
neurite/axon outgrowth (in words) ([2]; substrate-bound / coated surfaces): reduced to undetectable levels
neurite/axon outgrowth (in words) ([2]; substrate-bound / coated surfaces, listed as GST-hNogoA (residues #1055-1120)): dramatically reduces growth

reduction of binding of AP-Nogo-66 (mouse NgR; 0.5 nM AP-Nogo-66, NgR-ecto conditioned medium, COS-7 cells expressing full length NgR): 80%
B2: NgR-ecto: secreted fragment of amino acid residues 1-348 of the murine NgR, in HEK293T conditioned medium (protein)
chain: CPGACVCYNEPKVTTSCPQQGLQAVPTGIPASSQRIFLHGNRISHVPAASFQSCRNLTILWLHSNALARIDAAAFTGLTLLEQLDLSDNAQLHVVDPTTFHGLGHLHTLHLDRCGLRELGPGLFRGLAALQYLYLQDNNLQALPDNTFRDLGNLTHLFLHGNRIPSVPEHAFRGLHSLDRLLLHQNHVARVHPHAFRDLGRLMTLYLFANNLSMLPAEVLMPLRSLQYLRLNDNPWVCDCRARPLWAWLQKFRGSSSEVPCNLPQRLADRDLKRLAASDLEGCAVASGPFRPIQTSQLTDEELLSLPKCCQPDAADKASVLE
modifications: left off: small tags and cut ends
notes: secreted fragment of amino acid residues 1-348 of the murine NgR, in HEK293T conditioned medium
blockade of CNS myelin induced neurite outgrowth inhibition (in words) [1]: blocks the ability of CNS myelin to inhibit axonal outgrowth
blockade of CNS myelin induced neurite outgrowth inhibition (in words) ([1]; listed as NgR ectodomain protein): blocked
blockade of CNS myelin induced neurite outgrowth inhibition (in words) ([1]; listed as NgREcto): partially reversed
blockade of CNS myelin induced neurite outgrowth inhibition (in words) ([1]; listed as mNgR ectodomain protein): blocked
